The record followed here is patent EP3024460B1 (Immunomedics, Inc., dated 2020).

Assay [1] deals with T1, CD74 (human, UniProt P04233 1-296).
T1 construct: whole, on cells; Endogenous antigen of human tumor cell lines; measured on the surface or, after permeabilization, surface and cytoplasmic; also called invariant chain; Ii
T1 sequence (looked up): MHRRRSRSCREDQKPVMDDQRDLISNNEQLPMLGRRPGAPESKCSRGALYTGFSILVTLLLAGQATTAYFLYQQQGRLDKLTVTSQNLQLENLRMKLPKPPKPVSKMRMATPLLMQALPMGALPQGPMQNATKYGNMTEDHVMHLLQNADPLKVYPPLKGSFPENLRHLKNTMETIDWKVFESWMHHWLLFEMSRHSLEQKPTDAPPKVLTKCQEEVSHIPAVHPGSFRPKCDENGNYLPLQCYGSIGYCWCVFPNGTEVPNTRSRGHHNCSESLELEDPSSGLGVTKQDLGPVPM
The experiment in a line: cell binding to antigen-positive cells (cell line not stated).

For assay [2], the target named is T1, CD74. The assay is described as follows: cell-based or functional assay.
The target in the next assay is CD22 (human) (UniProt P20273). The assay is described as follows: cell-based or functional assay.
In assay [3] the target is T1, CD74. The assay is described as follows: flow cytometry, surface CD74 on Raji cells. On the technique in general: A flow cytometer gives signals particle by particle.
Assay [4] concerns the target T1, CD74. The assay is described as follows: flow cytometry, surface CD74 on Hs746T cells.
Assay [5] deals with T1, CD74. The experiment in a line: flow cytometry, surface and cytoplasmic CD74 in permeabilized NCI-N87 cells.
The target of assay [6] is T1, CD74. The experiment in a line: flow cytometry, surface CD74 on NCI-N87 cells.
The target of assay [7] is T1, CD74. The experiment in a line: flow cytometry, surface CD74 on Capan-1 cells.
Assay [8] deals with T1, CD74. The experiment in a line: flow cytometry, surface and cytoplasmic CD74 in permeabilized Hep-G2 cells.
For assay [9], the target named is T1, CD74. The assay is described as follows: flow cytometry, surface and cytoplasmic CD74 in permeabilized A-375 cells.
The target of assay [10] is T1, CD74. The assay is described as follows: flow cytometry, surface CD74 on A-375 cells.
Assay [11] addresses T1, CD74. The assay is described as follows: flow cytometry, surface CD74 on Hep-G2 cells.
The target in assay [12] is T1, CD74. The experiment in a line: flow cytometry, surface CD74 on HuH-7 cells.
For assay [13], the target named is T1, CD74. The experiment in a line: flow cytometry, surface and cytoplasmic CD74 in permeabilized HuH-7 cells.
The target in assay [14] is T1, CD74. The experiment in a line: flow cytometry, surface and cytoplasmic CD74 in permeabilized Capan-1 cells.
For assay [15], the target named is T1, CD74. The assay is described as follows: flow cytometry, surface and cytoplasmic CD74 in permeabilized Raji cells.
Assay [16] has as its target T1, CD74. The experiment in a line: flow cytometry, surface and cytoplasmic CD74 in permeabilized Hs746T cells.
Assay [17] addresses Human trophoblast cell-surface antigen (TROP-2) (human) (UniProt P09758). The assay is described as follows: cell binding assay on TROP-2-expressing cells.
The target is the same in assay [18]. The experiment in a line: cell-based or functional assay.
Assay [19] has the same target. The assay is described as follows: FACS on PC-3 cells.
Assay [20] shares this target. The assay is described as follows: FACS on Capan-1 cells.
The target is the same in assay [21]. The experiment in a line: FACS on SK-MES-1 cells.
The target is the same in assay [22]. The assay is described as follows: flow cytometry, surface of NCI-N87 cells.
Assay [23] has the same target. The experiment in a line: FACS on BxPC-3 cells.
Assay [24] shares this target. The experiment in a line: FACS on SK-MES-1 cells; background 3.5.
Assay [25] has the same target. The experiment in a line: FACS on COLO 205 cells; background 4.5.
Assay [26] shares this target. The experiment in a line: FACS on Calu-3 cells; background 4.7.
Assay [27] shares this target. The experiment in a line: FACS on PC-3 cells; background 5.5.
Assay [28] shares this target. The assay is described as follows: flow cytometry, surface of Capan-1 cells.
For assay [29] the target is unchanged. The experiment in a line: FACS on Calu-3 cells.
The target is the same in assay [30]. The assay is described as follows: FACS on COLO 205 cells.
Assay [31] has the same target. The experiment in a line: FACS on BxPC-3 cells; background 3.1.
Assay [32] has the same target. The experiment in a line: FACS on Capan-1 cells; background 5.0.

Sequence of Human trophoblast cell-surface antigen (TROP-2) (human) (P09758 27-323): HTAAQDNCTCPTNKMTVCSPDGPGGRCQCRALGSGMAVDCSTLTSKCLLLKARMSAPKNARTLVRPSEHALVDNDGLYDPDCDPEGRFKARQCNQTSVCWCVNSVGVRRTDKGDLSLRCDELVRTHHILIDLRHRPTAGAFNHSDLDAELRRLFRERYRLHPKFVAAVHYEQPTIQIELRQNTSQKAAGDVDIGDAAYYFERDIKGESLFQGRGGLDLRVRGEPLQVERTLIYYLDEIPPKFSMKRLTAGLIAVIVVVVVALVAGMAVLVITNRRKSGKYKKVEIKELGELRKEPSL

By Kd is commonly meant the constant that tells how readily two partners part at equilibrium. A high value points to weaker binding. In the assay with CD74 [1], milatuzumab-CL2A-SN-38 (antibody) registered a Kd of 0.59 nM.
In turn, milatuzumab-CL2E-SN-38 (antibody) showed an in vitro cytotoxicity (MTS assay), potency against free SN-38 in 4 solid tumor cell lines (fold lower potency than free SN-38) in the assay with CD74 [2] of 7 to 16. For the same molecule, the Kd with CD74 [1] is 0.8 nM.
Consider Emab-CL2E-SN-38 (antibody), for which, in the assay with CD22 (human), the in vitro cytotoxicity (MTS assay), potency against the nonbinding control conjugate was 2 fold.

B1: Milatuzumab (antibody, V domains shown)
VH: QVQLQQSGSELKKPGASVKVSCKASGYTFTNYGVNWIKQAPGQGLQWMGWINPNTGEPTFDDDFKGRFAFSLDTSVSTAYLQISSLKADDTAVYFCSRSRGKNEAWFAYWGQGTLVTVSS
VL: DIQLTQSPLSLPVTLGQPASISCRSSQSLVHRNGNTYLHWFQQRPGQSPRLLIYTVSNRFSGVPDRFSGSGSGTDFTLKISRVEAEDVGVYFCSQSSHVPPTFGAGTRLEIK
On to B1, for which the “MFI Ratio hLL1:bkgd” value with CD74 [3] was found to be 19.6; with CD74 [4], 2.1; with CD74 [5], 36.7; in the assay with CD74 [6], 1.3; with CD74 [7] it was 1.8; with CD74 [8], 31.2. Besides, the “MFI Ratio hLL1:bkgd” value in the assay with CD74 [9] was 30.8; in the assay with CD74 [10], 5.3; with CD74 [11], 1.5; with CD74 [12], 1.6; with CD74 [13], 28.5; with CD74 [14] it was 49.6. Moreover, the “MFI Ratio hLL1:bkgd” value came out at 28.6 with CD74 [15] and 28.8 in the assay with CD74 [16]. The molecule further showed a Kd in the assay with CD74 [1] of 0.77 nM.

B2: hRS7-CL2A-SN-38 (antibody, INN chains, looked up, V domains shown, part only)
VH: QVQLQQSGSELKKPGASVKVSCKASGYTFTNYGMNWVKQAPGQGLKWMGWINTYTGEPTYTDDFKGRFAFSLDTSVSTAYLQISSLKADDTAVYFCARGGFGSSYWYFDVWGQGSLVTVSS
VL: DIQLTQSPSSLSASVGDRVSITCKASQDVSIAVAWYQQKPGKAPKLLIYSASYRYTGVPDRFSGSGSGTDFTLTISSLQPEDFAVYYCQQHYITPLTFGAGTKVEIK
modifications: SN-38 via CL2A linker (sacituzumab govitecan)
B2 yielded a Kd in assay [17] of 1.2 nM. Also, in [18], the ADC/free SN-38 ratio (IC50, in vitro cytotoxicity), Calu-3 stood at 1.39 and the ADC/free SN-38 ratio (IC50, in vitro cytotoxicity), SK-MES-1 came out at 2.69.

B3: hRS7-CL2-SN-38 (antibody, INN chains, looked up, V domains shown, part only)
VH: B2 VH
VL: B2 VL
modifications: SN-38 via CL2 linker
In assay [17], B3 came in with a Kd of 1.2 nM. This lies in the single-digit nanomolar range.

B4: Humanized RS7 IgG (antibody, INN chains, looked up, V domains shown, part only)
VH: B2 VH
VL: B2 VL
modifications: IgG1
Regarding B4, the Percent positive in [19] came to 73.6%; in assay [20], 94.2%; in assay [21] it was 91.2%; in assay [23], 98.3%; in [29], 99.6%; in assay [30], 99.5%. Besides, the MFI was 795 in assay [22] and 237 in assay [28]. Also, the Median fluorescence in assay [24] came out at 44; in [25] it was 142; in assay [26] it was 282; in [27], 46.2; in assay [31] it was 26.4; in assay [32], 100.
